These results are taken from patent US10759836B2, “Cancer vaccine compositions and methods of use thereof” (UNIVERSITY OF WASHINGTON, priority 2014, dated 2020).

The subject of test [1] is small bowel tumor burden in APCmin mice. The experiment in a line: APCmin mouse model: small bowel tumor count after peptide vaccination. The format is in vivo. Particulars: for effect on small bowel tumor burden (tumor count): APCmin mice, vs CFA/IFA control, 50 ug per peptide s.c.; for peptide efficacy, APCmin Small Bowel (Spontaneous): summary table, Yes/No. On the procedure:
(§1) Offspring from APCmin were genotyped by PCR for the presence of the Min mutation using primers as follows: Wild-Type: 5′-[…]-3′ (SEQ ID NO: 46), Common 5′-[…]-3′ (SEQ ID NO: 47), Mutant: 5′-[…]-3′ (SEQ ID NO: 48). Both male and female mice testing positive for the Min mutation were included in the study and randomized into groups.
(§2) At 4-6 weeks of age, mice were immunized in CFA/IFA, PBS, and vaccine groups. Each group received subcutaneous injections (100 ul PBS, 50 ul CFA with 50 ul PBS, 50 ug per peptide with 50 ul CFA) once every 7-10 days for a total of three doses and one booster was given 4-5 weeks after the third vaccine. See Table 5 for peptides included in vaccine compositions. CFA was replaced with IFA after the first vaccine. All mice were sacrificed at 14 to 17 weeks of age, the gastrointestinal tracts were collected and tumors counted.

Test [2] has as its system colon tumor burden in APCmin mice. In words: APCmin mouse model: colon tumor count after peptide vaccination. The format is in vivo. Particulars: for effect on colon tumor burden (tumor count): APCmin mice, vs CFA/IFA control, 50 ug per peptide s.c.; for peptide efficacy, APCmin Colon (Spontaneous): summary table, Yes/No. On the procedure: as §1, §2
Test [3] has as its system small bowel tumor burden in APCmin mice. The experiment in a line: APCmin survival study: small bowel tumor count at sacrifice. It is filed as in vivo. As to conditions: boosters every 4-5 weeks, vs CFA/IFA. The protocol:
At 4-6 weeks of age, mice were immunized with CFA/IFA, PBS, and vaccine groups. Each group received subcutaneous injections (100 ul PBS, 50 ul CFA with 50 ul PBS, 50 ug per peptide with 50 ul CFA) once every 7-10 days for a total of three doses and a booster vaccine was given every 4-5 weeks after the third vaccine. See Table 6 for peptides included in vaccine compositions. CFA was replaced with IFA after the first vaccine. […] At sacrifice, small intestines were collected and small bowel tumors counted.

Test [4] relates to colon tumor burden in AOM mice (Azoxymethane + FVB). In words: AOM mouse model: colon tumor count after peptide vaccination. The format is in vivo. Particulars: for effect on colon tumor burden (tumor count): AOM treated FVB mice, vs control group (CFA/IFA; PBS for IGF1R, PRL3, RCAS1); for peptide efficacy, Azoxymethane + FVB (Induced): summary table, Yes/No. The protocol: AOM mouse in-vivo experiments. At 6 weeks of age, FVB mice were immunized in CFA/IFA, PBS, and vaccine groups. Each group received subcutaneous injections (100 ul PBS, 50 ul CFA with 50 ul PBS, 50 ug per peptide with 50 ul CFA) once every 10-14 days for a total of three doses and a booster was given every 4-5 weeks after the third vaccine. See Table 7 for peptides included in vaccine compositions. CFA was replaced with IFA after the first vaccine. Seven days after the third vaccine, mice were injected with Azoxymethane (AOM) at 10 mg/kg, twice weekly for 6 weeks. At 26 weeks of age, all mice were sacrificed and tumors in the colon were counted.

Test [5] deals with MC-38 cells (murine adenocarcinoma). In words: MC-38 tumor implant model: tumor volume after peptide vaccination. The format is in vivo, C57Bl/6 mice. As to conditions: for effect on tumor volume: MC-38 tumor implant in C57Bl/6 mice, vs CFA/IFA; for peptide efficacy, MC-38 + B6 (Tumor Implant): summary table, Yes/No. On the procedure:
MC-38 tumor implant in-vivo experiments. At 6 weeks of age, mice were immunized in CFA/IFA, PBS, and vaccine groups. Each group received subcutaneous injections (100 ul PBS, 50 ul CFA with 50 ul PBS, 50 ug per peptide with 50 ul CFA) once every 10-14 days for a total of three doses. See Table 9 for peptides included in vaccine compositions. CFA was replaced with IFA for the second and third vaccines. Two weeks after the final vaccine, we subcutaneously implanted 4×10^4 MC-38 cells (murine adenocarcinoma), and measured tumor growth with Vernier calipers 2-3 times per week. Tumor volume was calculated as length×width×height×π/6, which is the standard volume calculation of an ellipsoid. Mice were sacrificed when tumor size in control mice reached greater than 1000 mm^3.

“Also recorded” adds a separate entry of the source.

B1: PRL3: peptide vaccine of PRL-3 #1, #2, #3, #4, #29, 50 ug per peptide with CFA/IFA (peptide)
chain 1: VSYKHMRFLITHNPTNATL
chain 2: FIEDLKKYGATTVVRVCEVTY
chain 3: PCVAGLGRAPVLVALALIES
chain 4: MKYEDAIQFIRQKRRGAIN
chain 5: VEDWLSLVKAKFCEA
modifications: with CFA/IFA adjuvant
notes: peptide vaccine of PRL-3 #1, #2, #3, #4, #29, 50 ug per peptide with CFA/IFA
B1: in test [1], the “effect on small bowel tumor burden (tumor count)” value is “vaccine efficacy; also recorded: significantly inhibits” and the “peptide efficacy, APCmin Small Bowel (Spontaneous)” value is listed as “Yes”. In test [2], the “effect on colon tumor burden (tumor count)” value (“effect on colon tumor burden” for short) is listed as “lack of PRL3 vaccine efficacy; also recorded: does not significantly inhibit” and the “peptide efficacy, APCmin Colon (Spontaneous)” value (“peptide efficacy, APCmin Colon” below) is reported as “No”. Besides, the “effect on small bowel tumor burden (tumor count)” value in test [3] was “does not significantly inhibit”. In test [4], the “effect on colon tumor burden” value is recorded as “lack of PRL3 vaccine efficacy; also recorded: does not significantly inhibit” and the “peptide efficacy, Azoxymethane + FVB (Induced)” value (from here on “peptide efficacy … (Induced)”) is on record as “No”. In test [5], the “effect on tumor volume” value is on record as “significantly inhibits” and the “peptide efficacy, MC-38 + B6 (Tumor Implant)” value (“peptide efficacy, MC-38 + B6” for short) is listed as “Yes”.

B2: RCAS1: peptide vaccine of RCAS1 #13, #14, #21, #30, #31, 50 ug per peptide with CFA/IFA (peptide)
chain 1: EPDYFKDMTPTIRKTQKIVI
chain 2: DYFKDMTPTIRKTQKIVIKKR
chain 3: LFKFCTCLATVFSFLKRLIC
chain 4: GFSSRLAATQDLPFIHQSSELGD
chain 5: EEEDAAWQAEEVLRQQKLADR
modifications: with CFA/IFA adjuvant
notes: peptide vaccine of RCAS1 #13, #14, #21, #30, #31, 50 ug per peptide with CFA/IFA
For B2, in test [1], the “effect on small bowel tumor burden (tumor count)” value was “vaccine efficacy; also recorded: significantly inhibits” and the “peptide efficacy, APCmin Small Bowel (Spontaneous)” value was “Yes”. For the same molecule, in test [2], the “effect on colon tumor burden” value is “lack of RCAS1 vaccine efficacy; also recorded: does not significantly inhibit” and the “peptide efficacy, APCmin Colon” value is “No”. In addition, in test [4], the “effect on colon tumor burden” value is given as “lack of RCAS1 vaccine efficacy; also recorded: do not significantly inhibit” and the “peptide efficacy … (Induced)” value is recorded as “No”. For the same molecule, in test [5], the “effect on tumor volume” value is given as “significantly inhibits” and the “peptide efficacy, MC-38 + B6” value is listed as “Yes”.

B3: VCP: peptide vaccine of VCP #18, #19, #20, #23, 50 ug per peptide with CFA/IFA (peptide)
chain 1: IRMNRVVRNNLRVRLGDVISI
chain 2: LQLFRGDTVLLKGKKRR
chain 3: YFLEAYRPIRKGDIFLVRG
chain 4: VEFKVVETDPSPYCIVAPDT
modifications: with CFA/IFA adjuvant
notes: peptide vaccine of VCP #18, #19, #20, #23, 50 ug per peptide with CFA/IFA
Regarding B3, in test [1], the “effect on small bowel tumor burden (tumor count)” value is reported as “vaccine efficacy; also recorded: significantly inhibits” and the “peptide efficacy, APCmin Small Bowel (Spontaneous)” value is on record as “Yes”. Further, in test [2], the “effect on colon tumor burden” value is “vaccine efficacy; also recorded: significantly inhibits” and the “peptide efficacy, APCmin Colon” value is “Yes”. Besides, in test [4], the “effect on colon tumor burden” value is “lack of VCP vaccine efficacy; also recorded: does not significantly inhibit” and the “peptide efficacy … (Induced)” value is “No”. Also, in test [5], the “effect on tumor volume” value was “does not significantly inhibit” and the “peptide efficacy, MC-38 + B6” value was “No”.
